This note sets out measurements from PMC9769804.

pKd: −log10 of the molar value.

In this series the test system is SaraC (Stereum hirsutum FP-91666). The series is described as follows: SPR. The settings on record: S-adenosylmethionine (16 mM, protein pre-incubation), SPR Biacore T200, CM5 anti-His capture, 1x PBS with 5% DMSO pH 7.5 (protein/SAM mix), oligos in 1x PBS, 25 C, 5 uL/min, analyte 0.25-4 uM (Fig. 1 legend …).

A word on the pKd: it is the Kd on a negative log10 scale, so that one unit is a factor of ten. Low readings indicate a large Kd, high ones a small Kd. On to ATCCAGAGCGAGCCTATTACG [Oligo1309], for which the negative-log Kd (pKd) (called weak, 6mA at positions 7 and 11) was 5.78.
With CGATCGGATTTGACGGTT [Oligo5564], the pKd (two methyl groups, printed mG at positions 7 and 12, text calls these oligos 5mC or 6mA, so methylated base is ambiguous) was 6.09.
GATTCCTTC [Oligo7291] had a pKd (5mC at position 5) of 6.18.
